Test results taken from the Human Domainome abundance scans (Beltran et al. 2025).

B1: Nucleolar transcription factor 1, residues 408 to 469; numbered along this chain, P17480 (parent)
chain: KRPVSAMFIFSEEKRRQLQEERPELSESELTRLLARMWNDLSEKKKAKYKAREAALKAQSER

Variants of: B1
Experiment: abundance fitness (aPCA) (normalised: wild type 0, dead -1); higher = more abundant; growth selection in yeast, the domain comes from the species named
Conditions: Homo sapiens

Abundance fitness of substitutions, site by site:
P23: N -0.319 | D -0.431 | I -0.187 | A -0.256 | Q -0.275 | V -0.244 | M -0.291 | F -0.402 | E -0.357 | H -0.267 | Y -0.402 | S -0.21 | W -0.588 | K -0.174 | R -0.252 | T -0.218 | G -0.254
R32: K 0.021 | L -0.018 | Y -0.157 | F -0.188 | G -0.085 | A -0.033 | T -0.007 | I -0.007 | P -0.116 | H 0.023 | E -0.07 | W -0.136 | M -0.105 | S 0.022 | D -0.058
S26: A -0.115 | M -0.052 | H -0.182 | Y -0.536 | C -0.263 | P -0.16 | W -0.944 | E -0.109 | N -0.1 | D -0.157 | I -0.29 | T -0.144 | L -0.231 | K -0.476 | R -0.157 | Q -0.104 | F -0.592
L33: C -0.1 | M -0.023 | Q -0.092 | R -0.159 | P -1.22 | W -0.315 | V -0.067 | H -0.02 | I 0.016 | A -0.118 | E 0.006 | K -0.154 | S -0.188 | D -0.149
A35: L -0.063 | D -0.035 | Y -0.387 | T 0.014 | N -0.011 | C -0.194 | R -0.018 | M -0.102 | Q -0.017 | F -0.176 | S -0.063 | W -0.273 | V -0.057 | H -0.341 | I -0.015 | E -0.009
E27: V -0.201 | D 0.037 | K -0.148 | T -0.133 | P -0.067 | S -0.178 | M -0.358 | C -0.165 | N -0.33 | A -0.143 | H -0.4 | Q -0.121 | W -0.328 | Y -0.108 | G -0.09 | F -0.212
L30: E -0.227 | K -0.103 | S -0.178 | Y -0.099 | C -0.078 | D -0.65 | W -0.177 | N -0.303 | M -0.043 | G -0.254 | I -0.171 | F -0.327 | Q -0.032 | H -0.232 | R -0.108 | P -1.1 | T -0.118
E21: Y -0.276 | F -0.238 | T 0.02 | W -0.189 | K -0.065 | M -0.073 | R -0.086 | P -1.1 | C -0.076 | H -0.163 | A -0.099 | I -0.111 | V -0.1 | L -0.097 | D -0.126 | Q -0.006
L18: M -0.108 | E -0.664 | N -0.98 | A -0.167 | C -0.127 | S -0.632 | W -0.338 | V -0.021 | G -1 | F -0.085 | D -1.5 | R -0.965 | Q -0.531 | T -0.092 | Y -0.063 | H -0.639 | P -1.37
R22: H 0.06 | P -1.06 | C -0.081 | Q -0.058 | K -0.089 | I -0.286 | D -0.139 | W -0.132 | V -0.29 | Y -0.068 | T -0.229 | N -0.002 | S -0.119 | F -0.057 | E -0.194
Q19: Y -0.095 | F -0.26 | M 0.012 | E -0.067 | H -0.099 | R -0.016 | G -0.076 | I 0.009 | W -0.159 | A -0.036 | N -0.129 | S -0.02 | T -0.128 | C -0.083 | K 0.007 | L -0.017 | V -0.025
E29: S -0.17 | M -0.172 | F -0.603 | R -0.496 | G -0.2 | H -0.223 | N -0.174 | L -0.304 | T -0.157 | C -0.223 | W -0.699 | P -1.14 | I -0.327 | Y -0.433 | Q -0.111 | K -0.207 | V -0.258
E24: H -0.074 | L -0.209 | R -0.225 | W -0.083 | G -0.069 | T -0.123 | F -0.144 | V -0.401 | S -0.147 | C -0.225 | Q -0.151 | A -0.114 | D 0.03 | M -0.148 | N -0.199 | P -0.451 | I -0.544
E20: T -0.067 | L -0.1 | Q -0.016 | Y -0.099 | K 0.019 | A -0.092 | V -0.055 | F -0.018 | C -0.025 | D 0.031 | P -0.295 | M -0.099 | G -0.064 | W -0.152 | I -0.114 | R -0.012 | H -0.09 | S -0.016
Q17: R -0.114 | E 0.002 | T -0.026 | C -0.211 | S -0.016 | Y -0.145 | L -0.034 | G -0.038 | N -0.078 | M -0.028 | A -0.081 | H -0.091 | K -0.094 | I -0.201 | D -0.112 | V -0.018 | W -0.106
R16: M -0.024 | W -0.106 | V -0.044 | N -0.154 | Y -0.072 | T -0.078 | S -0.001 | Q -0.041
T31: R -0.07 | C -0.143 | P -0.423 | K -0.086 | A -0.043 | E -0.051 | M -0.133 | G -0.116 | S -0.02 | D 0.005 | Y -0.428 | V -0.131 | F -0.308 | W -0.221 | Q -0.045 | L -0.107 | H -0.074 | I -0.25
L34: E -0.287 | N -0.931 | K -1.27 | S -0.271 | V -0.026 | C -0.049 | F -0.296 | G -0.566 | D -1.19 | T -0.096 | A -0.192 | R -0.954 | Q -0.525 | Y -0.833 | P -0.945 | W -1.01 | I -0.074
S28: G -0.047 | T -0.076 | K -0.037 | D 0.055 | Q -0.08 | M -0.131 | H -0.06 | V -0.089 | E -0.011 | R -0.113 | F -0.071 | P -0.047 | A -0.053 | I -0.046 | C -0.043 | N -0.053 | Y -0.085
L25: E -0.501 | C -0.134 | Q -0.477 | G -0.946 | M -0.011 | V -0.155 | D -0.633 | T -0.423 | N -0.646 | A -0.106 | K -0.385 | Y -0.173 | R -0.325
R36: D 0.028 | L -0.093 | A -0.006 | M -0.103 | N -0.023 | G -0.111 | C -0.051 | P -0.483 | T -0.037 | I -0.101 | H -0.321 | K -0.072 | E -0.084 | Q -0.096 | F -0.097
